Data on four molecules can be found in US20030129724A1 (Harvard, published 2003).

Sequences and labels used below:
B3: Recombinant FLAG-epitope tagged HDAC6 (enzyme, not shown: small tags and cut ends)
chain: MTSTGQDSTTTRQRRSRQNPQSPPQDSSVTSKRNIKKGAVPRSIPNLAEVKKKGKMKKLGQAMEEDLIVGLQGMDLNLEAEALAGTGLVLDEQLNEFHCLWDDSFPEGPERLHAIKEQLIQEGLLDRCVSFQARFAEKEELMLVHSLEYIDLMETTQYMNEGELRVLADTYDSVYLHPNSYSCACLASGSVLRLVDAVLGAEIRNGMAIIRPPGHHAQHSLMDGYCMFNHVAVAARYAQQKHRIRRVLIVDWDVHHGQGTQFTFDQDPSVLYFSIHRYEQGRFWPHLKASNWSTTGFGQGQGYTINVPWNQVGMRDADYIAAFLHVLLPVALEFQPQLVLVAAGFDALQGDPKGEMAATPAGFAQLTHLLMGLAGGKLILSLEGGYNLRALAEGVSASLHTLLGDPCPMLESPGAPCRSAQASVSCALEALEPFWEVLVRSTETVERDNMEEDNVEESEEEGPWEPPVLPILTWPVLQSRTGLVYDQNMMNHCNLWDSHHPEVPQRILRIMCRLEELGLAGRCLTLTPRPATEAELLTCHSAEYVGHLRATEKMKTRELHRESSNFDSIYICPSTFACAQLATGAACRLVEAVLSGEVLNGAAVVRPPGHHAEQDAACGFCFFNSVAVAARHAQTISGHALRILIVDWDVHHGNGTQHMFEDDPSVLYVSLHRYDHGTFFPMGDEGASSQIGRAAGTGFTVNVAWNGPRMGDADYLAAWHRLVLPIAYEFNPELVLVSAGFDAARGDPLGGCQVSPEGYAHLTHLLMGLASGRIILILEGGYNLTSISESMAACTRSLLGDPPPLLTLPRPPLSGALASITETIQVHRRYWRSLRVMKVEDREGPSSSKLVTKKAPQPAKPRLAERMTTREKKVLEAGMGKVTSASFGEESTPGQTNSETAVVALTQDQPSEAATGGATLAQTISEAAIGGAMLGQTTSEEAVGGATPDQTTSEETVGGAILDQTTSEDAVGGATLGQTTSEEAVGGATLAQTISEAAMEGATLDQTTSEEAPGGTELIQTPLASSTDHQTPPTSPVQGTTPQISPSTLIGSLRTLELGSESQGASESQAPGEENLLGEAAGGQDMADSMLMQGSRGLTDQAIFYAVTPLPWCPHLVAVCPIPAAGLDVTQPCGDCGTIQENWVCLSCYQVYCGRYINGHMLQHHGNSGHPLVLSYIDLSAWCYYCQAYVHHQALLDVKNIAHQNKFGEDMPHPH
notes: Full length ORF with C-terminal FLAG tag in pBJ5, expressed in TAg Jurkat cells; also called HDAC6-FLAG; HD6

One data set has as its target HDAC4-EGFP (human) (UniProt P56524). The data set can be described thus: cell-based or functional assay.
Data set [1] addresses B3. Description: anti-FLAG co-immunoprecipitation from TAg Jurkat cells, Western blot. In general terms: Immunoblotting shows a protein as a band on a membrane.
Data set [2] deals with T1, calyculin A-treated (hyperphosphorylated) HDAC4 (human, UniProt P56524 1-1084, hyperphosphorylated after calyculin A treatment of the cells; sites not determined).
T1 construct: HDAC4-FLAG immunopurified from TAg Jurkat cells treated 1.5 hours with 20 nM calyculin A; also called HDAC4-FLAG from calyculin A-treated cells
Description: immunopurified HDAC4-FLAG from calyculin A-treated cells incubated 1 hour with untreated TAg Jurkat lysate, Western blot. How it is done: These samples were analyzed for 14-3-3 and HDAC3 binding by Western blot analysis.

A further data set has as its target T2, CHD4 (UniProt Q14839 1-1912, limits assumed).
T2 construct: Endogenous protein detected by Western blot in immunoprecipitates; also called CHD chromodomain protein
Description: anti-FLAG co-immunoprecipitation from TAg Jurkat cells, Western blot.

Another data set addresses T3, mSin3A (UniProt Q96ST3 1-1273).
T3 construct: Endogenous protein detected by Western blot in immunoprecipitates; also called co-repressor mSin3A
T3 sequence (looked up): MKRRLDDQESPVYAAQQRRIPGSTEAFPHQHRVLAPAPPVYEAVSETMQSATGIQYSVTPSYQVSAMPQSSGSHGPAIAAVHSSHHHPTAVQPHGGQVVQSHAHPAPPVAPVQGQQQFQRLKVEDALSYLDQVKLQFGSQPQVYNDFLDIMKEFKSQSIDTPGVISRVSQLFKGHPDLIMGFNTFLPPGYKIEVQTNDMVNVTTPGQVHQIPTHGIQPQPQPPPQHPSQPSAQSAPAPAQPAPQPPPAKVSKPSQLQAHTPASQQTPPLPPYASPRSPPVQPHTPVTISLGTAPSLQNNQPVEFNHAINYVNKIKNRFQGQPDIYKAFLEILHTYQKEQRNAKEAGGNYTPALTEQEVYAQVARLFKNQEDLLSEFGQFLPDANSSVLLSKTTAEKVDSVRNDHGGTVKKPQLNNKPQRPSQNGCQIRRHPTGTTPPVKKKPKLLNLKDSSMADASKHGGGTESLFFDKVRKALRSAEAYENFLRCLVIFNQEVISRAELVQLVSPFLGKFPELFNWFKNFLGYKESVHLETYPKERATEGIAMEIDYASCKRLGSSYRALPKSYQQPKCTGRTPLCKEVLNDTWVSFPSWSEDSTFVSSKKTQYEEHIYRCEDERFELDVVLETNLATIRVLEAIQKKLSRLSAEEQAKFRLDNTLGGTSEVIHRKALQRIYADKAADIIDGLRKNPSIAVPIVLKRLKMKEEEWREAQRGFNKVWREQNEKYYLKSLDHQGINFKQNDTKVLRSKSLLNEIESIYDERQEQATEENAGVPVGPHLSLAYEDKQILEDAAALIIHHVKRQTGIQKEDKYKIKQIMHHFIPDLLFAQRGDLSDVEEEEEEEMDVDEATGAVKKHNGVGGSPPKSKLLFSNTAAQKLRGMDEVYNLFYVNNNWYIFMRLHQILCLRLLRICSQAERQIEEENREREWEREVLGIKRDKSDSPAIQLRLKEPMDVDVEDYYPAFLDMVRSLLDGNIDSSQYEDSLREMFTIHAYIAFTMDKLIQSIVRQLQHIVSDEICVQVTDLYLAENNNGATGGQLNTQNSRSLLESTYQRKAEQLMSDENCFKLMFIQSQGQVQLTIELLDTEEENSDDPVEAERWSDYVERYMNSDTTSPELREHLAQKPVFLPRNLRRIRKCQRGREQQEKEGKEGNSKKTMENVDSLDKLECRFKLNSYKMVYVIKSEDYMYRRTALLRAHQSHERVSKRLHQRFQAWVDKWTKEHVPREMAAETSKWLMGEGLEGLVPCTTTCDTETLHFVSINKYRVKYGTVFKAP
The description is as above.

14-3-3 β, P31946, sequence (P31946 whole entry, looked up): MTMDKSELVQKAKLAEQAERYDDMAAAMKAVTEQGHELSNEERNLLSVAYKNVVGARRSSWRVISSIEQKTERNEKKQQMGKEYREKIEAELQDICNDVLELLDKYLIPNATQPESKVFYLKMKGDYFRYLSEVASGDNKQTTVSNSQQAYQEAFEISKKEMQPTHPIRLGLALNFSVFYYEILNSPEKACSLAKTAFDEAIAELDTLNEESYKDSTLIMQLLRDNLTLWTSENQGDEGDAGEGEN
14-3-3 ε, P62258, sequence (P62258 whole entry, looked up): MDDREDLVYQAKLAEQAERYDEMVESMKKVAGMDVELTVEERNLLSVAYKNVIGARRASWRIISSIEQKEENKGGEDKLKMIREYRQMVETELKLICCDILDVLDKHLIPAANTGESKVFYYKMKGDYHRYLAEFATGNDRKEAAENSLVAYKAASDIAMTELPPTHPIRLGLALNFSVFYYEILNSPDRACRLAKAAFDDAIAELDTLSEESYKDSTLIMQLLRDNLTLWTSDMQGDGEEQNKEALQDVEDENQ
T2 sequence (Q14839 whole entry): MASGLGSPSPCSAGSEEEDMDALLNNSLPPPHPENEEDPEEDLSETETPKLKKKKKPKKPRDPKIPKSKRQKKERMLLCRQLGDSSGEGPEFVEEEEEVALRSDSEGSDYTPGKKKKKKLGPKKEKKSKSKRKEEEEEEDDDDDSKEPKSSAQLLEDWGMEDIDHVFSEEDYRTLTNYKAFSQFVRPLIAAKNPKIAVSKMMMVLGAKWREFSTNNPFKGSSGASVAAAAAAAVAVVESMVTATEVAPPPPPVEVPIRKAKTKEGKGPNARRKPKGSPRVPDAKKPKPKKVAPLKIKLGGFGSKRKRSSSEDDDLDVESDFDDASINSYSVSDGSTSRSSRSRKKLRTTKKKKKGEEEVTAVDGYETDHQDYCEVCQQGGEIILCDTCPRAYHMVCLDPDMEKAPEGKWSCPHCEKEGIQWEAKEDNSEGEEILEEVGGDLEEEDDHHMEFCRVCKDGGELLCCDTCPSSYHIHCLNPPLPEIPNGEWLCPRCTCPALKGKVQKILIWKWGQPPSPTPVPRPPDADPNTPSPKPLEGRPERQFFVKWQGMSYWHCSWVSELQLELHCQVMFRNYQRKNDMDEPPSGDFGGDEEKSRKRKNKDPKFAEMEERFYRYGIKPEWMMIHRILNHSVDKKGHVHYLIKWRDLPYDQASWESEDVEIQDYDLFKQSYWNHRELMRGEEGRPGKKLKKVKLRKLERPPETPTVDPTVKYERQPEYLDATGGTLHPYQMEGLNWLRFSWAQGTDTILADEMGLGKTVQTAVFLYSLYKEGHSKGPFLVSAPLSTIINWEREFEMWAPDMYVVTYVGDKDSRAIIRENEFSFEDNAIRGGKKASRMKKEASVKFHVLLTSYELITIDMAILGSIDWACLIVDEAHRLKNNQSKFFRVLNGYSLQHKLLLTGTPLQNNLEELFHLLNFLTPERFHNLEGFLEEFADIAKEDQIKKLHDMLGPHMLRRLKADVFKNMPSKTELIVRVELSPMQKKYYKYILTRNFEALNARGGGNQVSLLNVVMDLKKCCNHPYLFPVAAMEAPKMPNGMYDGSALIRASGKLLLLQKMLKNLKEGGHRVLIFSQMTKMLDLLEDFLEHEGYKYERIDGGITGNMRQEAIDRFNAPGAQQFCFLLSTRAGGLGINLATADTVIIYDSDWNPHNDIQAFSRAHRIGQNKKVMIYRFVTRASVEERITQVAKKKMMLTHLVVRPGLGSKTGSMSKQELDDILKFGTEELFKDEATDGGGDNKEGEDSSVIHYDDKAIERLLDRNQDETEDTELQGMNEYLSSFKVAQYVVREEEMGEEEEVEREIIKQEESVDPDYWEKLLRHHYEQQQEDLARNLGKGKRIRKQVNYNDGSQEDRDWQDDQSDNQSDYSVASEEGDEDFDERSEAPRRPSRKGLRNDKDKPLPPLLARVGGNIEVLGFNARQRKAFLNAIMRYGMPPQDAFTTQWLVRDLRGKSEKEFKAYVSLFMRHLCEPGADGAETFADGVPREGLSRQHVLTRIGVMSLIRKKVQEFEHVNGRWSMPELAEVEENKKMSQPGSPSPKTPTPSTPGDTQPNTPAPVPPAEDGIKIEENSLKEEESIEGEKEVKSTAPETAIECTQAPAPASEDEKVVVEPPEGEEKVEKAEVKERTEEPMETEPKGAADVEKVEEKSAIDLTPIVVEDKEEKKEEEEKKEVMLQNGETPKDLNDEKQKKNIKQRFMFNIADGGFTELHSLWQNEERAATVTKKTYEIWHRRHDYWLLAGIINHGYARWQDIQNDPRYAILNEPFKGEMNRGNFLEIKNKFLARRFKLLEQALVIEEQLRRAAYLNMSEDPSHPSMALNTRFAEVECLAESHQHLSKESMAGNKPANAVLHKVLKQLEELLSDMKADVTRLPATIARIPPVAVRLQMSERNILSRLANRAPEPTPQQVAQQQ

On to “myc-tagged 14-3-3 β (from UniProt P31946 1-246)”, for which, in the data set with HDAC4-EGFP (human), the cytoplasmic localization of HDAC4 (percent of U2OS cells), HDAC4-EGFP with simultaneous overexpression of 14-3-3 (% of the cells) turned out to be 97 and the cytoplasmic localization of HDAC4 (percent of U2OS cells), control: HDAC4-EGFP alone without overexpressed 14-3-3 (% of the cells) amounted to 67.

B1: HDAC4 S246/466/632A triple mutant (protein)
chain: MSSQSHPDGLSGRDQPVELLNPARVNHMPSTVDVATALPLQVAPSAVPMDLRLDHQFSLPVAEPALREQQLQQELLALKQKQQIQRQILIAEFQRQHEQLSRQHEAQLHEHIKQQQEMLAMKHQQELLEHQRKLERHRQEQELEKQHREQKLQQLKNKEKGKESAVASTEVKMKLQEFVLNKKKALAHRNLNHCISSDPRYWYGKTQHSSLDQSSPPQSGVSTSYNHPVLGMYDAKDDFPLRKTAAEPNLKLRSRLKQKVAERRSSPLLRRKDGPVVTALKKRPLDVTDSACSSAPGSGPSSPNNSSGSVSAENGIAPAVPSIPAETSLAHRLVAREGSAAPLPLYTSPSLPNITLGLPATGPSAGTAGQQDTERLTLPALQQRLSLFPGTHLTPYLSTSPLERDGGAAHSPLLQHMVLLEQPPAQAPLVTGLGALPLHAQSLVGADRVSPSIHKLRQHRPLGRTQAAPLPQNAQALQHLVIQQQHQQFLEKHKQQFQQQQLQMNKIIPKPSEPARQPESHPEETEEELREHQALLDEPYLDRLPGQKEAHAQAGVQVKQEPIESDEEEAEPPREVEPGQRQPSEQELLFRQQALLLEQQRIHQLRNYQASMEAAGIPVSFGGHRPLSRAQASPASATFPVSVQEPPTKPRFTTGLVYDTLMLKHQCTCGSSSSHPEHAGRIQSIWSRLQETGLRGKCECIRGRKATLEELQTVHSEAHTLLYGTNPLNRQKLDSKKLLGSLASVFVRLPCGGVGVDSDTIWNEVHSAGAARLAVGCVVELVFKVATGELKNGFAVVRPPGHHAEESTPMGFCYFNSVAVAAKLLQQRLSVSKILIVDWDVHHGNGTQQAFYSDPSVLYMSLHRYDDGNFFPGSGAPDEVGTGPGVGFNVNMAFTGGLDPPMGDAEYLAAFRTVVMPIASEFAPDVVLVSSGFDAVEGHPTPLGGYNLSARCFGYLTKQLMGLAGGRIVLALEGGHDLTAICDASEACVSALLGNELDPLPEKVLQQRPNANAVRSMEKVMEIHSKYWRCLQRTTSTAGRSLIEAQTCENEEAETVTAMASLSVGVKPAEKRPDEEPMEEEPPL
As to B1, the “localization to the cytoplasm” value in the data set with 14-3-3 β, P31946 was “localization of the triple mutant to the cytoplasm is dramatically decreased compared to the wild-type and single mutants”; in the data set with 14-3-3 ε, P62258, “localization of the triple mutant to the cytoplasm is dramatically decreased compared to the wild-type and single mutants”.

B2: HDAC3 (enzyme, human, UniProt O15379 1-428, looked up)
chain: MAKTVAYFYDPDVGNFHYGAGHPMKPHRLALTHSLVLHYGLYKKMIVFKPYQASQHDMCRFHSEDYIDFLQRVSPTNMQGFTKSLNAFNVGDDCPVFPGLFEFCSRYTGASLQGATQLNNKICDIAINWAGGLHHAKKFEASGFCYVNDIVIGILELLKYHPRVLYIDIDIHHGDGVQEAFYLTDRVMTVSFHKYGNYFFPGTGDMYEVGAESGRYYCLNVPLRDGIDDQSYKHLFQPVINQVVDFYQPTCIVLQCGADSLGCDRLGCFNLSIRGHGECVEYVKSFNIPLLVLGGGGYTVRNVARCWTYETSLLVEEAISEELPYSEYFEYFAPDFTLHPDVSTRIENQNSRQYLDQIRQTIFENLKMLNHAPSVQIHDVPADLLTYDRTDEADAEERGPEENYSRPEAPNEFYDGDHDNDKESDVEI
notes: Endogenous protein co-immunoprecipitated from cell lysate; also used here for HDAC3 of staurosporine-treated cells; also called HDAC3 from untreated cells
For B2, the results for the binding result in data set [1] and in data set [2] were “no binding” and “binds”, respectively.

B3: the binding result in the data set with CHD4 and in the data set with mSin3A was “no binding” throughout.
